Test results: PMC4517790 (PLoS ONE, 2015)

Legend:
[1] = target: Alanine racemase AlrTt (MBAlr1) from Thermoanaerobacter tengcongensis MB4, wild type (Thermoanaerobacter tengcongensis MB4) (UniProt Q8RAK6); test: crystal structure; AlrTt (10 mg/mL) incubated with L-Ala and PLP at 1:1.5:1.5 molar ratio, hanging drop, 22% PEG 4000, 0.1 M Bis-Tris pH 7.0, 289 K; 2.7 Å; homodimer in one asymmetric unit
AlrTt [2] = target: T1, AlrTt (Caldanaerobacter subterraneus, UniProt Q8RAK6); test: X-ray crystal structure, […] Å; type: binding; conditions: co-crystallized with L-Ala and PLP, pH 7.0; active site
T1 construct: gene alr1; full length, pET-28a, N- and C-terminal 6xHis tags, E. coli BL21(DE3); 388 residues; homodimer in crystal, monomer in size exclusion

AlrTt [3] = target: T1, AlrTt; test: PLP content by absorption at […] nm; type: binding; conditions: active site, internal aldimine with Lys40 (covalent); in the crystal only the phosphate group of PLP was seen
purified protein [4] = substrate: C[C@@H](N)C(=O)O; test: purified protein; conditions: D-Ala to L-Ala; conditions of the kinetic assay not given
purified protein [5] = substrate: C[C@H](N)C(=O)O; test: purified protein; conditions: L-Ala to D-Ala; conditions of the kinetic assay not given

T1 sequence (Q8RAK6 whole entry): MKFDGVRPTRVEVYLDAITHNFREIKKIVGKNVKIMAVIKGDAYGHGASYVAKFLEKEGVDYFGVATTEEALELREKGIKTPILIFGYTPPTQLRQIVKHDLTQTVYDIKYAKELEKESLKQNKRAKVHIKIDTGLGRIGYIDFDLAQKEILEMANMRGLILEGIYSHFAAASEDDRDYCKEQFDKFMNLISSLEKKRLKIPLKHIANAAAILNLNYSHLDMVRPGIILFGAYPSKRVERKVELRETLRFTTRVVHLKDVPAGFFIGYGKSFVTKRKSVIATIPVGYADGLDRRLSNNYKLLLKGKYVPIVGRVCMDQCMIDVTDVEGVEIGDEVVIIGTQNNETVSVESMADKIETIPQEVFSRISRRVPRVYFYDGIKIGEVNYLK

Row | Molecule | Km (purified protein [4]) [mM] | kcat (purified protein [4]) [s⁻¹] | kcat/Km (purified protein [4]) [M⁻¹ s⁻¹] | Km (purified protein [5]) [mM] | kcat (purified protein [5]) [s⁻¹] | kcat/Km (purified protein [5]) [M⁻¹ s⁻¹] | other results
1 | Alanine racemase AlrTt (MBAlr1) from Thermoanaerobacter tengcongensis MB4, wild type (from UniProt Q8RAK6 1-388) (enzyme) | – | – | – | – | – | – | stoichiometry N [1]: 2
2 | C[C@H](N)C(=O)O [L-Ala] | – | – | – | – | – | – | X-ray crystal structure, 2.7 Å (AlrTt [2]): One L-Ala molecule is positioned in the active site pocket by hydrogen bonds
3 | Cc1ncc(COP(=O)(O)O)c(C=O)c1O [PLP] | – | – | – | – | – | – | PLP content (AlrTt [3]): 1.44 ± 0.01 mol PLP per mol enzyme
4 | AlrTt (Caldanaerobacter subterraneus subsp. tengcongensis MB4; Q360Y) (protein) MKFDGVRPTRVEVYLDAITHNFREIKKIVGKNVKIMAVIKGDAYGHGASYVAKFLEKEGVDYFGVATTEEALELREKGIKTPILIFGYTPPTQLRQIVKHDLTQTVYDIKYAKELEKESLKQNKRAKVHIKIDTGLGRIGYIDFDLAQKEILEMANMRGLILEGIYSHFAAASEDDRDYCKEQFDKFMNLISSLEKKRLKIPLKHIANAAAILNLNYSHLDMVRPGIILFGAYPSKRVERKVELRETLRFTTRVVHLKDVPAGFFIGYGKSFVTKRKSVIATIPVGYADGLDRRLSNNYKLLLKGKYVPIVGRVCMDQCMIDVTDVEGVEIGDEVVIIGTQNNETVSVESMADKIETIPYEVFSRISRRVPRVYFYDGIKIGEVNYLK | 52.03 ± 5.41 | 251 | 4830 | 87.81 ± 8.72 | 431 | 4910 | –
5 | AlrTt (Caldanaerobacter subterraneus subsp. tengcongensis MB4; Q360Y/S173D) (protein) MKFDGVRPTRVEVYLDAITHNFREIKKIVGKNVKIMAVIKGDAYGHGASYVAKFLEKEGVDYFGVATTEEALELREKGIKTPILIFGYTPPTQLRQIVKHDLTQTVYDIKYAKELEKESLKQNKRAKVHIKIDTGLGRIGYIDFDLAQKEILEMANMRGLILEGIYSHFAAADEDDRDYCKEQFDKFMNLISSLEKKRLKIPLKHIANAAAILNLNYSHLDMVRPGIILFGAYPSKRVERKVELRETLRFTTRVVHLKDVPAGFFIGYGKSFVTKRKSVIATIPVGYADGLDRRLSNNYKLLLKGKYVPIVGRVCMDQCMIDVTDVEGVEIGDEVVIIGTQNNETVSVESMADKIETIPYEVFSRISRRVPRVYFYDGIKIGEVNYLK | 58.48 ± 7.29 | 133 | 2270 | 83.10 ± 8.78 | 246 | 2970 | –
